Source: patent publication US20240417469A1 (CONCEPT TO MEDICINE BIOTECH, published 2024)

Key:
human CD3 protein = target: T1, human CD3 protein (human, UniProt P07766 23-126; P04234 22-105); test: ELISA, plate-coated CD3;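 also: binding to plate-immobilized human CD3 protein, bound antibody detected with peroxidase-labelled anti-human IgG and TMB, read as absorbance at 450 nm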
T1 construct: ELISA coating protein; also called Human CD3D & CD3E Heterodimer Protein

[1] = target: T2, recombinant CD3D&E protein (human CD3-his tag) (human, UniProt P04234 22-105; P07766 23-126, limits assumed); test: SPR Biacore, Ab captured on Protein A;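 also: humanized antibodies on a Protein A chip, human CD3-his analyte flowed over in serial dilutions for 3 min, dissociation tracked 120–360 s on a Biacore T200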
T2 construct: Analyte in Biacore; also called CD3D&E-His; CD3d&ε-His
T2 sequence (P04234 22-105 limits assumed, chain 1 of 2): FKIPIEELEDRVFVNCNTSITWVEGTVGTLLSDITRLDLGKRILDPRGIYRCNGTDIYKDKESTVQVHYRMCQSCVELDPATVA
T2 sequence (P07766 23-126 limits assumed, chain 2 of 2): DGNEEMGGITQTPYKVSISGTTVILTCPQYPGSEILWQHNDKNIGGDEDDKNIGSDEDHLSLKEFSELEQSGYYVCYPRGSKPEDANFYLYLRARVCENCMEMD

[2] = target: human CD3 on cells (human PBMC; Jurkat TCR/CD3 NFAT reporter cells) (human, UniProt P07766 23-207; P04234 22-171; P09693 23-182); test: cell-based or functional assay
Sequence of human CD3 on cells (human PBMC; Jurkat TCR/CD3 NFAT reporter cells) (P07766 23-207, chain 1 of 3): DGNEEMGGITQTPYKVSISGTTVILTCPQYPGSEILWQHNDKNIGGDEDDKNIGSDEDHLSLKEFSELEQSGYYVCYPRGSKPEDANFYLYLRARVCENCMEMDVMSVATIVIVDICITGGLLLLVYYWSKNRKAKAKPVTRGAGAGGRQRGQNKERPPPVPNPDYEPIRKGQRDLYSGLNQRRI
Sequence of human CD3 on cells (human PBMC; Jurkat TCR/CD3 NFAT reporter cells) (P04234 22-171, chain 2 of 3): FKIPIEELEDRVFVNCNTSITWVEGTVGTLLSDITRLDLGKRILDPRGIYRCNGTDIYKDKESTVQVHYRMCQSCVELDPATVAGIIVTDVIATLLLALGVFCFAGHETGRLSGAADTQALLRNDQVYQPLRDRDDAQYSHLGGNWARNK
Sequence of human CD3 on cells (human PBMC; Jurkat TCR/CD3 NFAT reporter cells) (P09693 23-182, chain 3 of 3): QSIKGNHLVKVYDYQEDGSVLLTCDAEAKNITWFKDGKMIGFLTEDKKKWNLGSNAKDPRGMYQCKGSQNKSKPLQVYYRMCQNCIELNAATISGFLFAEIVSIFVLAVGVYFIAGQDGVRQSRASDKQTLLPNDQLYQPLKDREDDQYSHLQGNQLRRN

T1 sequence (P07766 23-126 limits assumed, chain 1 of 2): as the sequence (P07766 23-126 limits assumed, chain 2 of 2) above
T1 sequence (P04234 22-105 limits assumed, chain 2 of 2): as the sequence (P04234 22-105 limits assumed, chain 1 of 2) above

Row | Binder | EC50 (human CD3 protein) | Kd [1] | koff [1] | kon [1] | CD3-NFAT Activity by CD3 mAb [2]
1 | Hu192A7B9-16 (antibody, V domains shown, humanized mAb) VH: EVQLQESGPGLVKPSETLSLTCTVSGGSISSYNVHWVRQPPGKGLEWMGRMRYNGDTSYNSALKSRLTISRDTSKNQFSLKLSSVTAADTAVYYCTRGPRGGYYSALFDYWGQGTMVTVSS VL: DIQMTQSPSSLSASVGDRVTITCKASQNINRYLNWYQQKPGKAPKLLISIANSLQTGIPSRFSGSGSGTDFTLTISSLQPEDFATYYCLQHNSWYTFGQGTKLEIK | 7.46 ng/mL | 146 nM | 0.0143 s⁻¹ | 97600 M⁻¹ s⁻¹ | > 50 % SP34
2 | Hu192A7B9-5 (antibody, V domains shown, humanized mAb) VH: EVQLQESGPGLVKPSETLSLTCTVSGFSISSYNVHWVRQPPGKGLEWMGRMRYNGDTSYNSALKSRLTISRDTSKNQVSLKLSSVTAADTAVYYCTRGPRGGYYSALFDYWGQGTMVTVSS VL: DIQMTQSPSSLSASVGDRVTITCKASQNINRYLNWYQQKPGKAPKLLIYIANSLQTGVPSRFSGSGSGTDFTLTISSLQPEDFATYYCLQHNSWYTFGQGTKLEIK | 5.52 ng/mL | 103 nM | 0.0119 s⁻¹ | 116000 M⁻¹ s⁻¹ | > 50 % SP34
3 | Hu192A7B9-6 (antibody, V domains shown, humanized mAb) VH: EVQLQESGPGLVKPSETLSLTCTVSGFSLTSYNVHWVRQPPGKGLEWMGRMRYNGDTSYNSALKSRLTISRDTSKNQVSLKLSSVTAADTAVYYCTRGPRGGYYSALFDYWGQGTMVTVSS VL: DIQMTQSPSSLSASVGDRVTITCKASQNINRYLNWYQQKPGKAPKLLIYIANSLQTGVPSRFSGSGSGTDFTLTISSLQPEDFATYYCLQHNSWYTFGQGTKLEIK | 8.59 ng/mL | 283 nM | 0.024 s⁻¹ | 84900 M⁻¹ s⁻¹ | > 50 % SP34
4 | Hu192A7B9-7 (antibody, V domains shown, humanized mAb) VH: EVQLQESGPGLVKPSETLSLTCTVSGGSISSYNVHWIRQPPGKGLEWIGRMRYNGDTSYNSALKSRVTISVDTSKNQFSLKLSSVTAADTAVYYCARGPRGGYYSALFDYWGQGTMVTVSS VL: DIQMTQSPSSLSASVGDRVTITCKASQNINRYLNWYQQKPGKAPKLLISIANSLQTGVPSRFSGSGSGTDFTLTISSLQPEDFATYYCLQHNSWYTFGQGTKLEIK | 22.6 ng/mL | 79.6 nM | 0.0151 s⁻¹ | 190000 M⁻¹ s⁻¹ | ≤ 50 % SP34
5 | Hu192A7B9-8 (antibody, V domains shown, humanized mAb) VH: EVQLQESGPGLVKPSETLSLTCTVSGGSISSYNVHWVRQPPGKGLEWIGRMRYNGDTSYNSALKSRVTISRDTSKNQFSLKLSSVTAADTAVYYCARGPRGGYYSALFDYWGQGTMVTVSS VL: DIQMTQSPSSLSASVGDRVTITCKASQNINRYLNWYQQKPGKAPKLLISIANSLQTGVPSRFSGSGSGTDFTLTISSLQPEDFATYYCLQHNSWYTFGQGTKLEIK | 6.42 ng/mL | 58.9 nM | 0.0475 s⁻¹ | 805000 M⁻¹ s⁻¹ | > 50 % SP34
6 | Hu192A7B9-9 (antibody, V domains shown, humanized mAb) VH: EVQLQESGPGLVKPSETLSLTCTVSGGSISSYNVHWVRQPPGKGLEWMGRMRYNGDTSYNSALKSRLTISRDTSKNQFSLKLSSVTAADTAVYYCARGPRGGYYSALFDYWGQGTMVTVSS VL: DIQMTQSPSSLSASVGDRVTITCKASQNINRYLNWYQQKPGKAPKLLISIANSLQTGVPSRFSGSGSGTDFTLTISSLQPEDFATYYCLQHNSWYTFGQGTKLEIK | 5.58 ng/mL | 92.7 nM | 0.0204 s⁻¹ | 220000 M⁻¹ s⁻¹ | > 50 % SP34
7 | Hu192A7B9-10 (antibody, V domains shown, humanized mAb) VH: EVQLQESGPGLVKPSETLSLTCTVSGGSISSYNVHWVRQPPGKGLEWMGRMRYNGDTSYNSALKSRLTISRDTSKNQFSLKLSSVTAADTAVYYCTRGPRGGYYSALFDYWGQGTMVTVSS VL: DIQMTQSPSSLSASVGDRVTITCKASQNINRYLNWYQQKPGKAPKLLISIANSLQTGVPSRFSGSGSGTDFTLTISSLQPEDFATYYCLQHNSWYTFGQGTKLEIK | 5.08 ng/mL | 122 nM | 0.0144 s⁻¹ | 118000 M⁻¹ s⁻¹ | > 50 % SP34
8 | Hu192A7B9-11 (antibody, V domains shown, humanized mAb) VH: EVQLQESGPGLVKPSETLSLTCTVSGFSISSYNVHWVRQPPGKGLEWMGRMRYNGDTSYNSALKSRLTISRDTSKNQVSLKLSSVTAADTAVYYCTRGPRGGYYSALFDYWGQGTMVTVSS VL: DIQMTQSPSSLSASVGDRVTITCKASQNINRYLNWYQQKPGKAPKLLISIANSLQTGVPSRFSGSGSGTDFTLTISSLQPEDFATYYCLQHNSWYTFGQGTKLEIK | 7.95 ng/mL | 77.7 nM | 0.00449 s⁻¹ | 57800 M⁻¹ s⁻¹ | > 50 % SP34
9 | Hu192A7B9-12 (antibody, V domains shown, humanized mAb) VH: EVQLQESGPGLVKPSETLSLTCTVSGFSLTSYNVHWVRQPPGKGLEWMGRMRYNGDTSYNSALKSRLTISRDTSKNQVSLKLSSVTAADTAVYYCTRGPRGGYYSALFDYWGQGTMVTVSS VL: DIQMTQSPSSLSASVGDRVTITCKASQNINRYLNWYQQKPGKAPKLLISIANSLQTGVPSRFSGSGSGTDFTLTISSLQPEDFATYYCLQHNSWYTFGQGTKLEIK | 9.74 ng/mL | 58.1 nM | 0.00317 s⁻¹ | 54600 M⁻¹ s⁻¹ | > 50 % SP34
10 | Hu192A7B9-13 (antibody, V domains shown, humanized mAb) VH: EVQLQESGPGLVKPSETLSLTCTVSGGSISSYNVHWIRQPPGKGLEWIGRMRYNGDTSYNSALKSRVTISVDTSKNQFSLKLSSVTAADTAVYYCARGPRGGYYSALFDYWGQGTMVTVSS VL: DIQMTQSPSSLSASVGDRVTITCKASQNINRYLNWYQQKPGKAPKLLISIANSLQTGIPSRFSGSGSGTDFTLTISSLQPEDFATYYCLQHNSWYTFGQGTKLEIK | 14.5 ng/mL | 22 nM | 0.00631 s⁻¹ | 286000 M⁻¹ s⁻¹ | ≤ 50 % SP34
11 | Hu192A7B9-14 (antibody, V domains shown, humanized mAb) VH: EVQLQESGPGLVKPSETLSLTCTVSGGSISSYNVHWVRQPPGKGLEWIGRMRYNGDTSYNSALKSRVTISRDTSKNQFSLKLSSVTAADTAVYYCARGPRGGYYSALFDYWGQGTMVTVSS VL: DIQMTQSPSSLSASVGDRVTITCKASQNINRYLNWYQQKPGKAPKLLISIANSLQTGIPSRFSGSGSGTDFTLTISSLQPEDFATYYCLQHNSWYTFGQGTKLEIK | 5.02 ng/mL | 86.7 nM | 0.0179 s⁻¹ | 206000 M⁻¹ s⁻¹ | > 50 % SP34
12 | Hu192A7B9-15 (antibody, V domains shown, humanized mAb) VH: EVQLQESGPGLVKPSETLSLTCTVSGGSISSYNVHWVRQPPGKGLEWMGRMRYNGDTSYNSALKSRLTISRDTSKNQFSLKLSSVTAADTAVYYCARGPRGGYYSALFDYWGQGTMVTVSS VL: DIQMTQSPSSLSASVGDRVTITCKASQNINRYLNWYQQKPGKAPKLLISIANSLQTGIPSRFSGSGSGTDFTLTISSLQPEDFATYYCLQHNSWYTFGQGTKLEIK | 28.8 ng/mL | 40.9 nM | 0.00741 s⁻¹ | 181000 M⁻¹ s⁻¹ | > 50 % SP34
13 | Hu192A7B9-17 (antibody, V domains shown, humanized mAb) VH: EVQLQESGPGLVKPSETLSLTCTVSGFSISSYNVHWVRQPPGKGLEWMGRMRYNGDTSYNSALKSRLTISRDTSKNQVSLKLSSVTAADTAVYYCTRGPRGGYYSALFDYWGQGTMVTVSS VL: DIQMTQSPSSLSASVGDRVTITCKASQNINRYLNWYQQKPGKAPKLLISIANSLQTGIPSRFSGSGSGTDFTLTISSLQPEDFATYYCLQHNSWYTFGQGTKLEIK | 4.46 ng/mL | 64.8 nM | 0.00532 s⁻¹ | 82200 M⁻¹ s⁻¹ | > 50 % SP34
14 | Hu192A7B9-4 (antibody, V domains shown, humanized mAb) VH: EVQLQESGPGLVKPSETLSLTCTVSGGSISSYNVHWVRQPPGKGLEWMGRMRYNGDTSYNSALKSRLTISRDTSKNQFSLKLSSVTAADTAVYYCTRGPRGGYYSALFDYWGQGTMVTVSS VL: DIQMTQSPSSLSASVGDRVTITCKASQNINRYLNWYQQKPGKAPKLLIYIANSLQTGVPSRFSGSGSGTDFTLTISSLQPEDFATYYCLQHNSWYTFGQGTKLEIK | 22.8 ng/mL | – | – | – | ≤ 50 % SP34
15 | Hu192A7B9-1 (antibody, V domains shown, humanized mAb) VH: EVQLQESGPGLVKPSETLSLTCTVSGGSISSYNVHWIRQPPGKGLEWIGRMRYNGDTSYNSALKSRVTISVDTSKNQFSLKLSSVTAADTAVYYCARGPRGGYYSALFDYWGQGTMVTVSS VL: DIQMTQSPSSLSASVGDRVTITCKASQNINRYLNWYQQKPGKAPKLLIYIANSLQTGVPSRFSGSGSGTDFTLTISSLQPEDFATYYCLQHNSWYTFGQGTKLEIK | 148 ng/mL | – | – | – | ≤ 50 % SP34
16 | Hu192A7B9-2 (antibody, V domains shown, humanized mAb) VH: EVQLQESGPGLVKPSETLSLTCTVSGGSISSYNVHWVRQPPGKGLEWIGRMRYNGDTSYNSALKSRVTISRDTSKNQFSLKLSSVTAADTAVYYCARGPRGGYYSALFDYWGQGTMVTVSS VL: DIQMTQSPSSLSASVGDRVTITCKASQNINRYLNWYQQKPGKAPKLLIYIANSLQTGVPSRFSGSGSGTDFTLTISSLQPEDFATYYCLQHNSWYTFGQGTKLEIK | 194 ng/mL | – | – | – | ≤ 50 % SP34
17 | Hu192A7B9-3 (antibody, V domains shown, humanized mAb) VH: EVQLQESGPGLVKPSETLSLTCTVSGGSISSYNVHWVRQPPGKGLEWMGRMRYNGDTSYNSALKSRLTISRDTSKNQFSLKLSSVTAADTAVYYCARGPRGGYYSALFDYWGQGTMVTVSS VL: DIQMTQSPSSLSASVGDRVTITCKASQNINRYLNWYQQKPGKAPKLLIYIANSLQTGVPSRFSGSGSGTDFTLTISSLQPEDFATYYCLQHNSWYTFGQGTKLEIK | 86.2 ng/mL | – | – | – | ≤ 50 % SP34
